Substitutions are numbered along the chain they refer to.
B1: M14 (antibody, human IgG1, kappa, V domains shown)
VH: QVQLVESGGGLVKPGGSLRLSCAASGFTFSDYYMSWIRQAPGKGLEWVSYISSSGTTKYYADSVKGRFTISRDNAKNSLYLQMNSLRAEDTAVYYCVRENLGYCSGGSCFYYYYMDVWGKGTTVTVSS
VL: not shown
B2: M16 (antibody, human IgG1, kappa, V domains shown)
VH: B1 VH
VL: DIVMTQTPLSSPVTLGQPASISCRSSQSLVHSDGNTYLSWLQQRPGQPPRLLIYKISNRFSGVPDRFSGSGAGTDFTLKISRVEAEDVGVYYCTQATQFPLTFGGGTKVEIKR
notes: Human IgG
B3: M23 (antibody, human IgG1, kappa, V domains shown)
VH: B1 VH with L101I, S105T, S108N
VL: not shown
B4: M7 (antibody, human IgG1, kappa, V domains shown)
VH: EVQLVESGGGLVQPGGSLRLSCAASGFTVSSNYMSWVRQAPGKGLEWVSVIYSGGSTYYADSVKGRFTISRDNSKNTLYLQMNSLRAEDTAVYYCARGSTNTYYYDSSGHPWGQGTMVTVSS
VL: DIVMTQSPLSLPATPGEPASISCRSSQSLLHSNGYTYLDWYLQKPGQSPQVLIYLASNRASGVPDRFSGSGSGTNFTLKISRVEAEDVGLFYCMQALQTPQTFGQGTKLEIKR
notes: Human IgG
B5: M22 (antibody, human IgG1, kappa, V domains shown)
VH: EVQLVESGGGLVQPGGSLRLSCAASGFTVSSNYMSWVRQAPGKGLEWVSVIYSGGTTYYADSVKGRFTISRHNSKNTLYLQMNSLRAEDTAVYYCARDHDPDYGGYYMDVWGKGTTVTVSS
VL: DVVMTQSPLSLPVTLGQPASISCRSSQSLVYSDGNTYLNWFQQRPGQSPRRLIYQVSNRDSGVPDRFSGSGSGTDFTLKIGRVEAEDVGVYFCMQGTHWPWTFGQGTKVEIKR
notes: Human IgG
B6: M20 (antibody, human IgG1, kappa, V domains shown)
VH: EVQLVESGGGLVQPGGSLRLSCAASGFTFSSYWMHWVRQAPGKGLVWVSHINSDGSSTSYADSVKGRFTISRDNAKNTLYLQMNSLRAEDTAVYYCARELADWGQGTLVTVSS
VL: B5 VL
notes: Human IgG
B7: M21 (antibody, human IgG1, kappa, V domains shown)
VH: EVQLVESGGGLVQPGGSLRLSCAASGFTVSSNYMSWVRQAPGKGLEWVSVIYSGGSTYYADSVKGRFTISRDNSKNTLYLQMNSLRAEDTAVYYCARDQEHYFDGSGYYVDYWGQGTLVTVSS
VL: B5 VL
notes: Human IgG
B8: M3 (antibody, human IgG1, lambda, V domains shown)
VH: QLQLQESGPGLVKPSETLSLTCTVSGGSISSSSYYWGWIRQPPGKGLEWIGSIYYSGSTHYNPSLKSRVTISVDTSKNQFSLKLRSVTAADTAVYYCARGVVEVRGNHYYYYYMDVWGKGTTVTVSS
VL: QSVLTQPPSVSGAPGQRVTISCTGSSSNIGAGYDVHWYQQLPGTAPKLLIYGNSYRPSGVPDRFSGSKSGTSASLAITGLQAEDEADYYCQSYDSSLSGSGVFGGGTKLTVLG
notes: Human IgG

biological target: T1, MUC1 on MUC1+ human cancer cell lines and tumor tissue (abnormal, e.g. hypoglycosylated, tumor MUC1) (human, UniProt P15941 24-1255); test: flow cytometry, MCF-7 cells
T1 construct: the MUC1 of each cell line or tissue (number of repeats, glycoform) is not specified; The cell line or tissue is named under assay; also called MUC1 on HPAF, MCF-7, BT-20, SKBR-3, PANC-1, MS+MUC1 cells; MUC1 on colon and pancreatic tumor samples
Method: (§1) The antibodies were further characterized for their surface binding to MUC1-expressing human cancer cell lines HPAF (pancreatic), MCF-7 (breast), BT-20 (breast), PANC-1 (pancreatic), and MS (breast) cell lines that express very low levels of MUC1 and was transfected with MUC1 cDNA (MS+MUC1). MCF-10A, a human nontransformed mammary epithelial cell line that expresses normal MUC1, was used as a predicted negative control for tumor MUC1 (hypoglycosylated MUC1)-specific staining Cells were grown attached to tissue culture plates, trypsinized, washed with PBS and 1% FBS and stained with each antibody for 30 minutes on ice. Cells were then washed 2 times with PBS and 1% FBS and stained with appropriate allophycocyanin (APC)-labeled secondary antibodies. Cells were washed again 2 times with PBS and 1% FBS and then analyzed by flow cytometry. Thirty-thousand events were collected for each sample and gated for viability by forward and side scatter. Live cells were then gated for APC+ staining as compared to an appropriate secondary antibody only control.

Binder | percentage of APC+ stained cells
B1 | 20.8%
B2 | 18.3%
B3 | 16.1%
B4 | 83.5%
B5 | 5.68%
B6 | 29.2%
B7 | 5%
B8 | 79.6%

biological target: T1, MUC1 on MUC1+ human cancer cell lines …; test: immunohistochemistry, colon tissue microarray, benign samples
Method: (§2) Secondary antibodies alone were used as negative controls. Following staining, the microarrays were analyzed using CELLPROFILER cell image analysis software (Broad Institute).

Binder | MUC1+ samples stained
B1 | 2 of 3 MUC1+ benign samples
B3 | 2 of 3 MUC1+ benign samples

biological target: T1, MUC1 on MUC1+ human cancer cell lines …; test: flow cytometry, MS+MUC1 cells
Method: as §1

Binder | percentage of APC+ stained cells
B1 | 28.4%
B2 | 7.03%
B3 | 33.8%
B4 | 22.4%
B5 | 5.78%
B6 | 6.32%
B7 | 4.41%
B8 | 22%

biological target: T1, MUC1 on MUC1+ human cancer cell lines …; test: flow cytometry, BT20 cells
Method: as §1

Binder | percentage of APC+ stained cells
B1 | 22.9%
B2 | 5.17%
B3 | 23%
B4 | 12.2%
B5 | 3.39%
B6 | 9.86%
B7 | 4.06%
B8 | 14.8%

biological target: T1, MUC1 on MUC1+ human cancer cell lines …; test: flow cytometry, HPAF cells
Method: as §1

Binder | percentage of APC+ stained cells
B1 | 6.81%
B2 | 5.93%
B3 | 5.71%
B4 | 51.5%
B5 | 2.99%
B6 | 4.36%
B7 | 2.6%
B8 | 42.1%

biological target: T1, MUC1 on MUC1+ human cancer cell lines …; test: flow cytometry, SKBR-3 cells
Method: as §1

Binder | percentage of APC+ stained cells
B1 | 22.3%
B2 | 2.68%
B3 | 18.6%
B4 | 1.65%
B5 | 1.34%
B6 | 1.91%
B7 | 0.99%
B8 | 5.71%

biological target: T1, MUC1 on MUC1+ human cancer cell lines …; test: flow cytometry, PANC-1 cells
Method: as §1

Binder | percentage of APC+ stained cells
B1 | 55.2%
B2 | 0.76%
B3 | 45.1%
B4 | 0.41%
B5 | 0.7%
B6 | 0.39%
B7 | 0.75%
B8 | 1.55%

biological target: T1, MUC1 on MUC1+ human cancer cell lines …; test: immunohistochemistry, colon tissue microarray, malignant samples
Method: as §2

Binder | MUC1+ samples stained
B1 | 56 of 114 MUC1+ malignant samples
B3 | 76 of 114 MUC1+ malignant samples

Source: patent US20160145343A1 (UNIVERSITY OF PITTSBURGH OF THE COMMONWEALTH SYSTEM OF …, published 2016)
